What was measured:
[1] = molecular target: purified HLA A*0201 molecules (with human β2-microglobulin) (human (endogenous in EBV transformed cell lines) | human); assay: radioligand binding
PBMC = assay type: cell-based, human
[2] = tested on: T cells from healthy donors; details: heteroclitic HLA-A0201-restricted epitope; cited from earlier work

## HCV NS3 1406-1415 epitope peptide … (Lp5)
[1]
  IC50: 5 nM

## phytohemmaglutinin [PHA]
PBMC
  response in positive control: uniformly positive

B1: Melan-A epitope (L26–35): heteroclitic HLA-A0201-restricted Melan-A epitope (peptide, UniProt Q16655 1-118, looked up, variant A27L)
Melanoma antigen recognized …: MPREDAHFIYGYPKKGHGHSYTTAEELAGIGILTVILGVLLLIGCWYCRRRNGYRALMDKSLHVGTQCALTRRCPQEGFDHRDSKVSLQEKNCEPVVPNAPPAYEKLSAEQSPPPYSP
modifications: epitope 26-35
[2]
  frequency of T cells recognizing the epitope: relatively frequent
